Experiments:
steroid sulfatase (STS) = assay: Steroid sulfatase (STS) activity assay after co-expression with FGE in MSDi Tet-On cells; format: cell-based, human; conditions: vs STS expressed alone; doxycycline induction
Experimental: Activity assays of STS were performed as described earlier (15, 23). For western blot analysis, polyclonal antisera against FGE and steroid sulfatase were used as primary antibodies. Horseradish peroxidase-conjugated goat anti-rabbit antibody was used as secondary antibodies. Signals of steroid sulfatase are given as relative amounts, i.e. related to signal intensities detected in cells expressing steroid sulfatase only. Relative specific sulfatase activities were calculated, i.e. catalytic activity divided by the western blot signal (arbitrary units) and referred to that of cells expressing the sulfatase only (relative specific sulfatase activity=1). Absolute values for this reference are given in the legends.
Using this method the inventors examined whether the RYSR motif is required for the activation of sulfatases. cDNAs encoding steroid sulfatase (STS) alone or co-transfected along with cDNAs encoding RYSR-motif alanine variants of FGE in immortalized MSD Tet-On cells were transfected (FIG. 9C). Upon doxycycline induction, STS was barely active when expressed alone, whereas co-expression with FGE-wt increased the activity of STS approx. 50-fold, as observed previously (12).

furin = furin (Homo sapiens, UniProt P09958); assay: FGE processing in CHO-FD11 cells co-expressing furin; format: cell-based; design: expressed in transfected cells; host or cells: CHO-FD11 / CHO-FD11 Tet-On (furin-deficient CHO) cells, transient co-transfection with FGE
furin, sequence (P09958 108-794): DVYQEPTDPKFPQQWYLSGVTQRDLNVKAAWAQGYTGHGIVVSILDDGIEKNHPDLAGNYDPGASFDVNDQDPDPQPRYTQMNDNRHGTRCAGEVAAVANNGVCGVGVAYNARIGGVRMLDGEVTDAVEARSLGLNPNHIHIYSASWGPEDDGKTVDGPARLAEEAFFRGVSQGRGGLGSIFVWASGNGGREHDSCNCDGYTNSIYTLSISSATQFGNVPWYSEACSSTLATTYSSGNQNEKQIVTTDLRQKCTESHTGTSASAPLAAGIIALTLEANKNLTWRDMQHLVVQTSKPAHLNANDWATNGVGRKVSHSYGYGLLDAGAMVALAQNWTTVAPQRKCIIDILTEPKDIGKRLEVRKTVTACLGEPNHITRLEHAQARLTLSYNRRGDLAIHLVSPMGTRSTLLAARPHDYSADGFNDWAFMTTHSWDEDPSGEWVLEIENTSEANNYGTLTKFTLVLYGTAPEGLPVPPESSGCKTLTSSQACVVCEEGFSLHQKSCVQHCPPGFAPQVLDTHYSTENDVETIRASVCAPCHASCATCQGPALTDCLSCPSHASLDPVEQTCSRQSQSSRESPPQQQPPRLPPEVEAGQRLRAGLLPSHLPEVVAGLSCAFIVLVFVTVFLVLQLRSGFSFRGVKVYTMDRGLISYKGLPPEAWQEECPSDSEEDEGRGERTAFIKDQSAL
Source text: The resulting constructs were verified by full-length sequencing of the coding region to exclude any PCR prone errors. Plasmids for expression of the PCs encoding human furin (Gene ID 5045), human PACE4 (=PCSK6, Gene ID 5046), murine […] (=Pcsk5, Gene ID 18552) and rat PC7 (=Pcsk7, Gene ID 29606) were kindly provided by Abdel-Majid Khatib (18). Note that the PC cDNAs were encoded as pIRES constructs coding also for enhanced green fluorescence protein (EGFP) such that EGFP expression levels serve as a measure of the expression levels of PCs.
3 μg of pSB-FGE-RGS-His6 vector was used for single transfections of HT1080, HeLa, HEK 293, BHK and CHO cells. Conditioned medium was collected after 24 h and centrifuged (500×g, 5 min) Cells were washed once with PBS, treated with trypsin (Lonza) and pelleted by 250×g to remove the medium. Cell pellets were resuspended in PBS (pH 7.4) containing protease inhibitor (PI) cocktail (Sigma) and lysed by sonication 3×10 s on ice. […]
In mammals, the proproteinconvertase family comprises nine enzymes that differ in their substrate specificity and tissue-specific expression and/or subcellular localization (17). […] Indeed, rFurin readily converted almost 90% of endogenous fl-FGE from untransfected HT1080 cells to the truncated form (FIG. 12E). […]

B1: FGE: human wild type full length formylglycine generating enzyme with RYSR furin cleavage motif, SEQ ID NO:2 (protein)
chain: ADEFSQEAGTGAGAGSLAGSCGCGTPQRPGAHGSSAAAHRYSREANAPGPVPGERQLAHSKMVPIPAGVFTMGTDDPQIKQDGEAPARRVTIDAFYMDAYEVSNTEFEKFVNSTGYLTEAEKFGDSFVFEGMLSEQVKTNIQQAVAAAPWWLPVKGANWRHPEGPDSTILHRPDHPVLHVSWNDAVAYCTWAGKRLPTEAEWEYSCRGGLHNRLFPWGNKLQPKGQHYANIWQGEFPVTNTGEDGFQGTAPVDAFPPNGYGLYNIVGNAWEWTSDWWTVHHSVEETLNPKGPPSGKDRVKKGGSYMCHRSYCYRYRCAARSQNTPDSSASNLGFRCAADRLPTMDSGRGSHHHHHHH
modifications: cloned matured acitve full length FGE with 6x His tag on C-terminus
B1 was tested, and the “increase of STS activity on co-expression” value (steroid sulfatase (STS)) was “approx. 50 fold”, the Δ72-FGE in secretions (furin; coexpression of furin, CHO-FD11 Tet-On) was about 100% and the “form of secreted FGE” value (furin; furin replenished by exogenous expression) was “all secreted FGE was in the truncated form”.

Source: patent publication US20150141617A1, “PRODUCTION AND PURIFICATION OF ACTIVE EUKARYOTIC FORMYLGLYCINEGENERATING ENZYME (FGE) VARIANTS” (Universität Bielefeld, priority 2013, published 2015)
